Values quoted from earlier work as cited in patent US20250326839A1, “TREATMENT OF DISEASES RELATED TO COLONY-STIMULATING FACTOR 1 RECEPTOR DYSFUNCTION USING TREM2 AGONISTS” (Vigil Neuroscience, Inc., priority 2020, published 2025).
Changes are numbered by the printed parent chain. In names and notes the source's numbering stands. Like-named read-outs stand apart in the source and are kept apart here. Marks after values point to notes of the source that are not given here.

T1: TREM2 (Homo sapiens, UniProt Q9NZC2)
T1 sequence (Q9NZC2 19-230): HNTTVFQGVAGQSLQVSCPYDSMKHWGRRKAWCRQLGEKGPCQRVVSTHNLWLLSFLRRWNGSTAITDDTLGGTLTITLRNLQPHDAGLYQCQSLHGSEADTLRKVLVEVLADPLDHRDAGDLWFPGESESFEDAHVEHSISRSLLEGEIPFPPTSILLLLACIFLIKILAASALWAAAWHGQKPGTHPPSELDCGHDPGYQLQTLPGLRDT

B1: V87: 6E7 variant: VH T30R, T58V, S63D, Q99S; VL N56W (antibody, V domains shown)
VH: EVQLVQSGAEVKKPGESLKISCKGSGYSFRSYWIAWVRQMPGKGLEWMGIIYPGDSDVRYSPDFQGQVTISADKSISTAYLQWSSLKASDTAMYFCARSRTFYYDSSDYFDYWGQGTLVTVSS
VL: DIQMTQSPSSVSASVGDRVTITCRASQGISSWLAWYQQKPGKAPKLLIYAASSLQWGVPSRFSGSGSGTDFTLTISSLQPEDFATYFCQQADSFPRTFGQGTKLEIK
B2: V40: 6E7 variant: VH T30G, T58V, F110S; VL N56L, S93R (antibody, V domains shown)
VH: B1 VH with R30G, D63S, S99Q, F110S
VL: B1 VL with W56L, S93R
B3: V14: 6E7 variant: VH T30G, S56Q, Q99G; VL S53R (antibody, V domains shown)
VH: B1 VH with R30G, S56Q, V58T, D63S, S99G
VL: B1 VL with S53R, W56N
B4: V88: 6E7 variant: VH T30G; VL S53R, N56R, F94S (antibody, V domains shown)
VH: B1 VH with R30G, V58T, D63S, S99Q
VL: B1 VL with S53R, W56R, F94S
B5: V39: 6E7 variant: VH T30G, S61N, Q99G; VL Q55V, F94S (antibody, V domains shown)
VH: B1 VH with R30G, V58T, S61N, D63S, S99G
VL: B1 VL with Q55V, W56N, F94S
B6: V25: 6E7 variant: VH T30G, I50L, Q99S; VL Q55A, F94M (antibody, V domains shown)
VH: B1 VH with R30G, I50L, V58T, D63S
VL: B1 VL with Q55A, W56N, F94M
B7: V16: 6E7 variant: VH F29M, S56G, Q99S; VL S53N (antibody, V domains shown)
VH: B1 VH with F29M, R30T, S56G, V58T, D63S
VL: B1 VL with S53N, W56N
B8: V28: 6E7 variant: VH T30Q, I50T, Y103F; VL N56S, F94L (antibody, V domains shown)
VH: B1 VH with R30Q, I50T, V58T, D63S, S99Q, Y103F
VL: B1 VL with W56S, F94L
B9: V24: 6E7 variant: VH T58V, Q99S; VL N56K, R96H (antibody, V domains shown)
VH: B1 VH with R30T, D63S
VL: B1 VL with W56K, R96H
B10: V27: 6E7 variant: VH S61A, Q99S; VL N56R (antibody, V domains shown)
VH: B1 VH with R30T, V58T, S61A, D63S, A97V
VL: B1 VL with W56R
B11: V26: 6E7 variant: VH A35G, I50T, F102M, Y112A; VL N56R, F94Y (antibody, V domains shown)
VH: B1 VH with R30T, A35G, I50T, V58T, D63S, S99Q, F102M, Y112A
VL: B1 VL with W56R, F94Y
B12: V90: 6E7 variant: VH Y32E; VL S31R (antibody, V domains shown)
VH: B1 VH with R30T, Y32E, V58T, D63S, S99Q
VL: B1 VL with S31R, W56N
B13: V13: 6E7 variant: VH T30G, P62A, Q99G; VL N56G, F94M (antibody, V domains shown)
VH: B1 VH with R30G, V58T, P62A, D63S, S99G
VL: B1 VL with W56G, F94M
B14: V36: 6E7 variant: VH I34L, Q99S; VL L54R, F94Y (antibody, V domains shown)
VH: B1 VH with R30T, I34L, V58T, D63S
VL: B1 VL with L54R, W56N, F94Y
B15: V37: 6E7 variant: VH F29H, Q65A, Q99S; VL N56W, F94Y (antibody, V domains shown)
VH: B1 VH with F29H, R30T, V58T, D63S, Q65A
VL: B1 VL with F94Y
B16: V17: 6E7 variant: VH T30G, Q99S; VL L54R, F94S (antibody, V domains shown)
VH: B1 VH with R30G, V58T, D63S
VL: B1 VL with L54R, W56N, F94S
B17: V38: 6E7 variant: VH T30G, T58V; VL L54R, F94H (antibody, V domains shown)
VH: B1 VH with R30G, D63S, S99Q
VL: B1 VL with L54R, W56N, F94H
B18: V15: 6E7 variant: VH T30A, I50T, Q99S; VL S53W, F94Y (antibody, V domains shown)
VH: B1 VH with R30A, I50T, V58T, D63S
VL: B1 VL with S53W, W56N, F94Y

Molecular target: T1, TREM2
Details: cited from earlier work
[1] = 10 nM Ab concentration (values not marked *)

| Molecule | Binding Signal (fold over 6E7 parental antibody) 1st screen 110 nM or 10 nM [1] | Binding Signal (fold over 6E7 parental antibody) 2nd screen 2 nM (2nd screen) | Binding Signal (fold over 6E7 parental antibody) 2nd screen 10 nM (2nd screen) | Binding Signal (fold over 6E7 parental antibody) 1st screen 110 nM or 10 nM (110 nM Ab concentration (values marked *)) | Binding Signal (fold over 6E7 parental antibody) 2nd screen 100 nM (2nd screen, 100 nM) |
| --- | --- | --- | --- | --- | --- |
| B1 | 3.84 fold over 6E7 parental antibod | 4.86 fold over 6E7 parental antibod | 3.93 fold over 6E7 parental antibod |  |  |
| B2 | 4.48 fold over 6E7 parental antibod | 3.41 fold over 6E7 parental antibod | 4.16 fold over 6E7 parental antibod |  |  |
| B3 | 4.71 fold over 6E7 parental antibod | 2.57 fold over 6E7 parental antibod | 4.64 fold over 6E7 parental antibod |  |  |
| B4 | 4.92 fold over 6E7 parental antibod | 5.57 fold over 6E7 parental antibod | 5.30 fold over 6E7 parental antibod |  |  |
| B5 | 6.15 fold over 6E7 parental antibod | 5.11 fold over 6E7 parental antibod | 5.81 fold over 6E7 parental antibod |  |  |
| B6 | 4.23 fold over 6E7 parental antibod | 3.15 fold over 6E7 parental antibod | 4.70 fold over 6E7 parental antibod |  |  |
| B7 | 4.01 fold over 6E7 parental antibod | 3.57 fold over 6E7 parental antibod | 4.04 fold over 6E7 parental antibod |  |  |
| B8 | 3.08 fold over 6E7 parental antibod | 2.63 fold over 6E7 parental antibod | 3.61 fold over 6E7 parental antibod |  |  |
| B9 | 2.64 fold over 6E7 parental antibod | 1.42 fold over 6E7 parental antibod | 2.90 fold over 6E7 parental antibod |  |  |
| B10 | 5.50 fold over 6E7 parental antibod | 5.67 fold over 6E7 parental antibod | 5.69 fold over 6E7 parental antibod |  |  |
| B11 | 3.57 fold over 6E7 parental antibod | 2.83 fold over 6E7 parental antibod | 3.47 fold over 6E7 parental antibod |  |  |
| B12 |  |  |  | 0.33* fold over 6E7 parental antibod | 0.36 fold over 6E7 parental antibod |
| B13 | 1.31 fold over 6E7 parental antibod | 1.15 fold over 6E7 parental antibod | 1.35 fold over 6E7 parental antibod |  |  |
| B14 | 3.38 fold over 6E7 parental antibod | 4.00 fold over 6E7 parental antibod | 3.44 fold over 6E7 parental antibod |  |  |
| B15 | 3.46 fold over 6E7 parental antibod | 3.69 fold over 6E7 parental antibod | 3.49 fold over 6E7 parental antibod |  |  |
| B16 | 5.37 fold over 6E7 parental antibod | 4.22 fold over 6E7 parental antibod | 5.51 fold over 6E7 parental antibod |  |  |
| B17 | 4.34 fold over 6E7 parental antibod | 3.44 fold over 6E7 parental antibod | 4.36 fold over 6E7 parental antibod |  |  |
| B18 | 5.23 fold over 6E7 parental antibod | 4.72 fold over 6E7 parental antibod | 4.78 fold over 6E7 parental antibod |  |  |
